US20230219996A1

Columns and labels:
[1] = biological target: SARS-CoV-2 spike (B.1.1.7, UK, Alpha) (SARS-CoV-2); test: MSD V-PLEX ACE2 kit, sVNT, positive control; competitor ACE2 (NHP study)
[2] = biological target: SARS-CoV-2 spike (B.1.351, South Africa, Beta) (SARS-CoV-2); test: as above
[3] = biological target: SARS-CoV-2 spike (P.1, Brazil, Gamma) (SARS-CoV-2); test: as above
[4] = biological target: SARS-CoV-2 spike (B.1.1.7, UK, Alpha) (SARS-CoV-2); test: MSD V-PLEX ACE2 kit, sVNT, positive control; competitor ACE2 (mouse study)
[5] = biological target: SARS-CoV-2 spike (B.1.351, South Africa, Beta) (SARS-CoV-2); test: as above
[6] = biological target: SARS-CoV-2 spike (P.1, Brazil, Gamma) (SARS-CoV-2); test: as above

Measured: ACE2-binding percent inhibition

ACE2 Calibration Reagent (included in the MSD kit)
100%: all assays above
